Measurements taken from patent publication US20170129954A1 (PROTHENA BIOSCIENCES, published 2017).

Target: T1, human MCAM C320A mutant (shotgun mutagenesis library, on BHK cells) (human, UniProt P43121 24-646)
T1 chain: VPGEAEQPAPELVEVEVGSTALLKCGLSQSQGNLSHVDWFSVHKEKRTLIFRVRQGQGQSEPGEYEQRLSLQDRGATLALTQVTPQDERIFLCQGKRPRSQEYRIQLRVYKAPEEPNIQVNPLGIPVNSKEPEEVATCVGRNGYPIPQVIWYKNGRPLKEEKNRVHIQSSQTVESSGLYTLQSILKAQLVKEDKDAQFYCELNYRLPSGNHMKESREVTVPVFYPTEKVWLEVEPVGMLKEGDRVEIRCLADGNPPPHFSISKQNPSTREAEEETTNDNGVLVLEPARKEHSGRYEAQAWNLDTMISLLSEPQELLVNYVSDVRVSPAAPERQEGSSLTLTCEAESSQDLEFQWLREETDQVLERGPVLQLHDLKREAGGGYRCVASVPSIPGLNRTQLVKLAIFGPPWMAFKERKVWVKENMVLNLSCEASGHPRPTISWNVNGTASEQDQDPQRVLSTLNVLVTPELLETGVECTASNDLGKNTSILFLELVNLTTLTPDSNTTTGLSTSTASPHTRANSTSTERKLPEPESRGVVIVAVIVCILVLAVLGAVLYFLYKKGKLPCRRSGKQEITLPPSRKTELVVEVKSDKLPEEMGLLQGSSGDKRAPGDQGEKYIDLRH
Assay: shotgun mutagenesis library, immunofluorescence on BHK cells, 0.5 µg/mL antibody
Experimental: Secondary antibodies from Jackson ImmunoResearch were used at 1:400 for MAb and sera detection.
The mutation library was assayed for surface expression (mouse sera binding) and monoclonal antibody binding, in triplicate. Each raw data point was background-subtracted and normalized to the wild type MCAM reactivity values. The mean monoclonal antibody binding value for each clone is plotted as a function of its mean surface expression value (FIG. 1, gray diamonds). Thresholds of <30% monoclonal antibody reactivity and >50% mouse sera binding were applied to identify clones (FIG. 1, black diamonds) that were negative for monoclonal antibody binding but positive for surface expression.

B1: mouse anti-human MCAM monoclonal antibody clone 1749.1.3 (antibody, V domains shown)
VH: DVKLVESGGDLVKPGGSLKLSCAASGFTFSSYIMSWVRQTPEKRLEWVATISSGGSSTYYPDSVKGRFTISRDNAKNTLYLQMSSLKSEDTAMYYCTRDDDYDVKVFAYWGQGTLVTVSA
VL: DIVMSQSPSSLAVSAGEKVTMNCKSSRSLLNSRIRKNYLAWYQQKPGQSPKLLIYWASTRESGVPDRFTGSGSGTDFTLTISSVQAEDLAVYYCKQSYNLLTFGAGTKLELK
notes: Mouse hybridoma monoclonal antibody; also called m1749
Does B1 bind?
Result: no binding (tested: <30% WT)
